Measured values taken from US20070244048A1 (published 2007).
Where two headings read alike, the source gives them in different places. Non-standard residues stand in square brackets, D forms with d. No end group written: not given here. *: point of attachment. Succinimide(1-Et,3-yl) = CCN1C(=O)CC(*)C1=O; dNle = CCCC[C@@H](N)C(=O)O

Legend:
human NMUR2 [1] = target: T1, human NMUR2 (human, UniProt Q9GZQ4 1-415); experiment: cell-based or functional assay
human NMUR1 [2] = target: T2, human NMUR1 (human, UniProt Q9HB89 1-426); experiment: cell-based or functional assay
T2 sequence (looked up): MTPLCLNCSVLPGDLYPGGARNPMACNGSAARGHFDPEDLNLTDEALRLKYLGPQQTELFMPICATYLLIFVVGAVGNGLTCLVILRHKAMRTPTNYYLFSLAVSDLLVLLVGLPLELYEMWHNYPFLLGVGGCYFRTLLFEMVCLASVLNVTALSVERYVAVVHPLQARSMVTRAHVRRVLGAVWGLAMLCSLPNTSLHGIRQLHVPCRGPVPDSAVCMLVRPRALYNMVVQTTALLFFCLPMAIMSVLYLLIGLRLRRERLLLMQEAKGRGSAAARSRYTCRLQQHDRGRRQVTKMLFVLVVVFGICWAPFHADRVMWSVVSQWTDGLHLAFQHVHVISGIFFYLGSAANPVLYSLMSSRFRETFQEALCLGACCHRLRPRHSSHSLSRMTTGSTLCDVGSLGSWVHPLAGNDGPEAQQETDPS

human NMUR2 [3] = target: T1, human NMUR2; experiment: 125I-hNMU-25 displacement, HEK cell membranes
Protocol: (§1) Confluent cell monolayers expressing NMU receptors (the HEK cells described above) were harvested with phosphate buffered saline, collected by centrifugation, and resuspended in membrane buffer (50 mM TrisCl pH 7.4, 5 mM MgCl₂, 1× Protease Inhibitor Cocktail, 10 μM phosphoramidon). After the cell pellet was homogenized, the solution was centrifuged at 18,000 rpm for 20 minutes at 4° C. The pellet was resuspended in membrane buffer to yield a final concentration of 0.5-5 μg/μL of membrane and stored at −80° C.
(§2) Experiments were performed in assay buffer (25 mM TrisCl, pH 7.4, 10 mM MgCl₂, 2mM EDTA, 1× Protease Inhibitor Cocktail, 100 μg/mL Bacitricin, 10 μM phosphoramidon) in 200 μL volumes in a 96-well format using 2-5 μg of membrane and […] ¹²⁵I-hNMU-25 (about 12,000 cpm/well). For non-specific binding, 1 μM hNMU-25 was added. About 5 μL of peptides were added to measure antagonist activity, and the entire reaction was incubated at room temperature with shaking for 80 minutes. The reaction was terminated by rapid filtration through 0.3% poly-ethylenimine presoaked Millipore 96-well filter plates and washed with ice-cold buffer (5 mM TrisCl pH 7.4, 10 mM MgCl₂, 2.5 mM EDTA, 0.04% Triton X-100). Plates were air-dried overnight at room temperature and recovered radioactivity was determined by standard scintillation counting. IC₅₀ values were determined using GraphPad Prism software.
(§3) Concentration-response curves and radioligand-binding data were fitted using Prism (GraphPad Software). Results are summarized below in Tables 8 and 9.

human NMUR1 [4] = target: T2, human NMUR1; experiment: 125I-hNMU-25 displacement, HEK cell membranes
Protocol: as §1, §2, §3

human NMUR2 [5] = target: T1, human NMUR2; experiment: cell-based or functional assay; remark: listed apart in the source
human NMUR1 [6] = target: T2, human NMUR1; experiment: cell-based or functional assay; remark: listed apart in the source
rat NMUR2 = rat NMUR2 (rat, UniProt Q9ESQ4 1-395); experiment: cell-based or functional assay
rat NMUR1-ATG = target: T3, rat NMUR1-ATG (rat, UniProt Q9JJI5 1-425); experiment: cell-based or functional assay
T3 sequence (looked up): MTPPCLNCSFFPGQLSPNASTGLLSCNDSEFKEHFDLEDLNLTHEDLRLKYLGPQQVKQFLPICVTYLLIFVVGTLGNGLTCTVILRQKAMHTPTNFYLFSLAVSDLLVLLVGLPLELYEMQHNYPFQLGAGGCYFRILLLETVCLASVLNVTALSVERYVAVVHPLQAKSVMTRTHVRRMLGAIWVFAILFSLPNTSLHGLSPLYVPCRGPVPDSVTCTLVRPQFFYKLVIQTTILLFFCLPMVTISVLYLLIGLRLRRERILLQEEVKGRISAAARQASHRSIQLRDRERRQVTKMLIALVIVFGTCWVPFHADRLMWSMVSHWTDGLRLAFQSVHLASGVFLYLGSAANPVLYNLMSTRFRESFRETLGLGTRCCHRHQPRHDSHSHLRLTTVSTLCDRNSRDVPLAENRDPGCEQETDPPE

human NMUR2 [7] = target: T1, human NMUR2; experiment: cell-based or functional assay; remark: listed apart in the source
human NMUR1 [8] = target: T2, human NMUR1; experiment: cell-based or functional assay; remark: listed apart in the source
mouse NMUR1-ATG = target: T4, mouse NMUR1-ATG (mouse, UniProt O55040 1-428); experiment: cell-based or functional assay
T4 sequence (looked up): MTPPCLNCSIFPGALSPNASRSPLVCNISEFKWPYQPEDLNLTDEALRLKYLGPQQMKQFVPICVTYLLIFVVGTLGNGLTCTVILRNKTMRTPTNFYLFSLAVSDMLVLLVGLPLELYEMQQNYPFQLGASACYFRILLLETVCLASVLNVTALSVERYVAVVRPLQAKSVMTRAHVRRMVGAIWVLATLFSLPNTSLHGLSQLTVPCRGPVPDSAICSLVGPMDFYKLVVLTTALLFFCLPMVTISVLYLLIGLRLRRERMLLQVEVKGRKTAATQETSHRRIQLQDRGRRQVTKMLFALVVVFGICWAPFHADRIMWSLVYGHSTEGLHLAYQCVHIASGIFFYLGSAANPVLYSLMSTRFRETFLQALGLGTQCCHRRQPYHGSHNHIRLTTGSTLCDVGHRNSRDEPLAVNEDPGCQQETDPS

mouse NMUR1-CTG = target: T5, mouse NMUR1-CTG (mouse, UniProt O55040 1-428); experiment: cell-based or functional assay
T5 sequence (looked up): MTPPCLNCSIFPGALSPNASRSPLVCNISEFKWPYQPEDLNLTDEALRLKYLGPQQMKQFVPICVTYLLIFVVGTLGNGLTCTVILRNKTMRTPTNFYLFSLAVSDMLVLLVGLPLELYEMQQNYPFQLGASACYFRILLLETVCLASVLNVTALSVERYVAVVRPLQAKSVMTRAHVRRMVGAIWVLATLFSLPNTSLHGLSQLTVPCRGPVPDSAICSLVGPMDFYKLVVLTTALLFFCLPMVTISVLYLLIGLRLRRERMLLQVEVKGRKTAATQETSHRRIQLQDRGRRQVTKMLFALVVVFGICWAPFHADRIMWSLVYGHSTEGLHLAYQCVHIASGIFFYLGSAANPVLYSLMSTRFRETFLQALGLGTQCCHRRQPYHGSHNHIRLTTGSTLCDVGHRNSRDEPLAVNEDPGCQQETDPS

mouse NMUR2 = mouse NMUR2 (mouse, UniProt Q8BZ39 1-395); experiment: cell-based or functional assay
human NMUR2 [9] = target: T1, human NMUR2; experiment: cell-based or functional assay; remark: listed apart in the source
human NMUR1 [10] = target: T2, human NMUR1; experiment: cell-based or functional assay; remark: listed apart in the source

T1 sequence (Q9GZQ4 whole entry): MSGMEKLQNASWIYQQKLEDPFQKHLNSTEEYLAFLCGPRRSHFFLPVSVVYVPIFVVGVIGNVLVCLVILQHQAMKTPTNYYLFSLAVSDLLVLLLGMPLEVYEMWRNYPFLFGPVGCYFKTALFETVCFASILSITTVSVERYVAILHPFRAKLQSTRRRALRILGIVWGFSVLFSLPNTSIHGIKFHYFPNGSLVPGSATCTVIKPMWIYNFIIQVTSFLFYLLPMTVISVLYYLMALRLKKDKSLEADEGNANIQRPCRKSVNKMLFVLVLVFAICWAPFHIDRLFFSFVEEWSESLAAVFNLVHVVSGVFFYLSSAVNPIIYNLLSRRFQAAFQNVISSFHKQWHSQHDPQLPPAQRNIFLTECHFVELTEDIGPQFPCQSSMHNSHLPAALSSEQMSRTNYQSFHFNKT
rat NMUR2, sequence (Q9ESQ4 whole entry): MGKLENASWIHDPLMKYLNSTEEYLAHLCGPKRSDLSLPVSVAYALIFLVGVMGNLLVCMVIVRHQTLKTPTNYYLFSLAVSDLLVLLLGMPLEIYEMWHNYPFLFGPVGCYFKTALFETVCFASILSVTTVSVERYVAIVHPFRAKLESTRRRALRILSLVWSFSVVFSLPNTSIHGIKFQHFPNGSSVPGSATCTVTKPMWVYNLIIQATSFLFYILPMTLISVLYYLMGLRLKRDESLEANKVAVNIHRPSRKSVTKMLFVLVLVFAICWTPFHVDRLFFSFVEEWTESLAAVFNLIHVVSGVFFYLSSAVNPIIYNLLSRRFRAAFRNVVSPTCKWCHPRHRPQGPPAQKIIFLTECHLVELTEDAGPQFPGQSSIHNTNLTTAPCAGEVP
mouse NMUR2, sequence (Q8BZ39 whole entry): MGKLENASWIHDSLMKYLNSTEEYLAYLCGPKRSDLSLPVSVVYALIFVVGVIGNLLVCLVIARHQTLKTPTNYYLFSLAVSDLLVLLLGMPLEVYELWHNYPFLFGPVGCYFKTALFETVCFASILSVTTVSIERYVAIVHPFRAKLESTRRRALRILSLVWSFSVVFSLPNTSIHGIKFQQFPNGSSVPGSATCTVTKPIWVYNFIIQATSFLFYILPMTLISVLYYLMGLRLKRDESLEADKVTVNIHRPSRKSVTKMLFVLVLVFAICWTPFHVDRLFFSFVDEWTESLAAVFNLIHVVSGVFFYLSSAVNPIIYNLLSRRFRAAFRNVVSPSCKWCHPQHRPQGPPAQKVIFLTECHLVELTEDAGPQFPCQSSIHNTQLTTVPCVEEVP

B1: neuromedin U receptor agonist Q (peptide)
peptide: FRVDEEFQSPFASQSRGFWLFRPR[dNle]-NH2
modifications: N-terminus assumed
SMILES: CCCC[C@@H](NC(=O)[C@H](CCCNC(=N)N)NC(=O)[C@@H]1CCCN1C(=O)[C@H](CCCNC(=N)N)NC(=O)[C@H](Cc1ccccc1)NC(=O)[C@H](CC(C)C)NC(=O)[C@H](Cc1c[nH]c2ccccc12)NC(=O)[C@H](Cc1ccccc1)NC(=O)CNC(=O)[C@H](CCCNC(=N)N)NC(=O)[C@H](CO)NC(=O)[C@H](CCC(N)=O)NC(=O)[C@H](CO)NC(=O)[C@H](C)NC(=O)[C@H](Cc1ccccc1)NC(=O)[C@@H]1CCCN1C(=O)[C@H](CO)NC(=O)[C@H](CCC(N)=O)NC(=O)[C@H](Cc1ccccc1)NC(=O)[C@H](CCC(=O)O)NC(=O)[C@H](CCC(=O)O)NC(=O)[C@H](CC(=O)O)NC(=O)[C@@H](NC(=O)[C@H](CCCNC(=N)N)NC(=O)[C@@H](N)Cc1ccccc1)C(C)C)C(N)=O
- % activity (human NMUR2 [1]): 97%
- EC50 (human NMUR2 [1]): 18.3 nM
- % activity (human NMUR1 [2]): 0%
- EC50 (human NMUR1 [2]): > 1000 nM
- % activity (binding) (human NMUR2 [3]): 89%
- IC50 (human NMUR2 [3]): 12 nM
- % activity (binding) (human NMUR1 [4]): 16%

B2: neuromedin U receptor agonist C (peptide)
peptide: YFGWRPRN-NH2
- % activity (human NMUR2 [5]): 0%
- IC50 (nM), functional (human NMUR2 [5]): > 1000 nM
- % activity (human NMUR1 [6]): 87%
- IC50 (nM), functional (human NMUR1 [6]): 1.1 nM
- % activity (binding) (human NMUR2 [3]): 0%
- % activity (binding) (human NMUR1 [4]): 100%
- IC50 (human NMUR1 [4]): 0.42 nM

B3: neuromedin U receptor agonist D (peptide)
peptide: YF[dA]WRPRN-NH2
modifications: N-terminus assumed
SMILES: C[C@@H](NC(=O)[C@H](Cc1ccccc1)NC(=O)[C@@H](N)Cc1ccc(O)cc1)C(=O)N[C@@H](Cc1c[nH]c2ccccc12)C(=O)N[C@@H](CCCNC(=N)N)C(=O)N1CCC[C@H]1C(=O)N[C@@H](CCCNC(=N)N)C(=O)N[C@@H](CC(N)=O)C(N)=O
- % activity (human NMUR2 [5]): 0%
- IC50 (nM), functional (human NMUR2 [5]): > 1000 nM
- % activity (human NMUR1 [6]): 96%
- IC50 (nM), functional (human NMUR1 [6]): 1.5 nM
- % activity (binding) (human NMUR2 [3]): 0%
- % activity (binding) (human NMUR1 [4]): 100%
- IC50 (human NMUR1 [4]): 2.6 nM

B4: neuromedin U receptor agonist E (peptide)
peptide: Ac-F[dL]WRPRN-NH2
SMILES: CC(=O)N[C@@H](Cc1ccccc1)C(=O)N[C@H](CC(C)C)C(=O)N[C@@H](Cc1c[nH]c2ccccc12)C(=O)N[C@@H](CCCNC(=N)N)C(=O)N1CCC[C@H]1C(=O)N[C@@H](CCCNC(=N)N)C(=O)N[C@@H](CC(N)=O)C(N)=O
- % activity (human NMUR2 [5]): 1.8%
- IC50 (nM), functional (human NMUR2 [5]): > 1000 nM
- % activity (human NMUR1 [6]): 100%
- IC50 (nM), functional (human NMUR1 [6]): 1.9 nM
- % activity (binding) (human NMUR2 [3]): 5%
- % activity (binding) (human NMUR1 [4]): 93%
- IC50 (human NMUR1 [4]): 75 nM

B5: neuromedin U receptor agonist G (peptide)
peptide: FRVDEEFQSPFASQSRGYFWRPRN-NH2
- % activity (human NMUR2 [5]): 14%
- IC50 (nM), functional (human NMUR2 [5]): > 1000 nM
- % activity (human NMUR1 [6]): 91%
- IC50 (nM), functional (human NMUR1 [6]): 8.4 nM
- % activity (binding) (human NMUR2 [3]): 33%
- IC50 (human NMUR2 [3]): 31 nM
- % activity (binding) (human NMUR1 [4]): 97%
- IC50 (human NMUR1 [4]): 2.1 nM

B6: neuromedin U receptor agonist B (peptide)
peptide: YF[dL]WRPRN-NH2
modifications: N-terminus assumed
SMILES: CC(C)C[C@@H](NC(=O)[C@H](Cc1ccccc1)NC(=O)[C@@H](N)Cc1ccc(O)cc1)C(=O)N[C@@H](Cc1c[nH]c2ccccc12)C(=O)N[C@@H](CCCNC(=N)N)C(=O)N1CCC[C@H]1C(=O)N[C@@H](CCCNC(=N)N)C(=O)N[C@@H](CC(N)=O)C(N)=O
- % activity (human NMUR2 [5]): 0%
- IC50 (nM), functional (human NMUR2 [5]): > 1000 nM
- % activity (human NMUR1 [6]): 103%
- IC50 (nM), functional (human NMUR1 [6]): 9 nM
- % activity (binding) (human NMUR2 [3]): 35%
- % activity (binding) (human NMUR1 [4]): 96%
- IC50 (human NMUR1 [4]): 14 nM

B7: NMU8 (peptide)
peptide: Ac-C(Succinimide(1-Et,3-yl))FRVDEEFQSPFASQSRGYFLFRPRN-NH2
- % activity (binding) (human NMUR2 [3]): 100%
- IC50 (human NMUR2 [3]): 0.3 nM
- % activity (binding) (human NMUR1 [4]): 100%
- IC50 (human NMUR1 [4]): 2.4 nM
- % Activity (FLIPR) (rat NMUR2): 94.7%
- EC50 (FLIPR) (rat NMUR2): 45.1 nM
- % Activity (FLIPR) (rat NMUR1-ATG): 97.2%
- EC50 (FLIPR) (rat NMUR1-ATG): 36.7 nM
- % activity (human NMUR2 [7]): 104%
- EC50 (human NMUR2 [7]): 2.9 nM
- % activity (human NMUR1 [8]): 100%
- EC50 (human NMUR1 [8]): 1.36 nM
- % Activity (FLIPR) (mouse NMUR1-ATG): 100%
- EC50 (FLIPR) (mouse NMUR1-ATG): 6.4 nM
- % Activity (FLIPR) (mouse NMUR1-CTG): 100%
- EC50 (FLIPR) (mouse NMUR1-CTG): 15.5 nM
- % Activity (FLIPR) (mouse NMUR2): 100%
- EC50 (FLIPR) (mouse NMUR2): 1.8 nM
- % Activity (FLIPR) (human NMUR2 [9]): 100%
- EC50 (FLIPR) (human NMUR2 [9]): 5.2 nM
- % Activity (FLIPR) (human NMUR1 [10]): 99.1%
- EC50 (FLIPR) (human NMUR1 [10]): 10.7 nM
